According to patent US20220041691A1, “METHODS FOR DIAGNOSING OR TREATING POST-TRAUMATIC STRESS DISORDER, AND COMPOSITIONS THEREFOR” (Centre for Addiction and Mental Health, priority 2018, published 2022):

B1: human glucocorticoid receptor (GR) (receptor)
chain: MDSKESLTPGREENPSSVLAQERGDVMDFYKTLRGGATVKVSASSPSLAVASQSDSKQRRLLVDFPKGSVSNAQQPDLSKAVSLSMGLYMGETETKVMGNDLGFPQQGQISLSSGETDLKLLEESIANLNRSTSVPENPKSSASTAVSAAPTEKEFPKTHSDVSSEQQHLKGQTGTNGGNVKLYTTDQSTFDILQDLEFSSGSPGKETNESPWRSDLLIDENCLLSPLAGEDDSFLLEGNSNEDCKPLILPDTKPKIKDNGDLVLSSPSNVTLPQVKTEKEDFIELCTPGVIKQEKLGTVYCQASFPGANIIGNKMSAISVHGVSTSGGQMYHYDMNTASLSQQQDQKPIFNVIPPIPVGSENWNRCQGSGDDNLTSLGTLNFPGRTVFSNGYSSPSMRPDVSSPPSSSSTATTGPPPKLCLVCSDEASGCHYGVLTCGSCKVFFKRAVEGQHNYLCAGRNDCIIDKIRRKNCPACRYRKCLQAGMNLEARKTKKKIKGIQQATTGVSQETSENPGNKTIVPATLPQLTPTLVSLLEVIEPEVLYAGYDSSVPDSTWRIMTTLNMLGGRQVIAAVKWAKAIPGFRNLHLDDQMTLLQYSWMFLMAFALGWRSYRQSSANLLCFAPDLIINEQRMTLPCMYDQCKHMLYVSSELHRLQVSYEEYLCMKTLLLLSSVPKDGLKSQELFDEIRMTYIKELGKAIVKREGNSSQNWQRFYQLTKLLDSMHEVVENLLNYCFQTFLDKTMSIEFPEMLAEIITNQIPKYSNGNIKKLLFHQK
notes: Endogenous protein in peripheral blood (lymphocyte) lysate of patients and controls
B2: human FK506 Binding Protein 51 (FKBP51) (other)
chain: MTTDEGAKNNEESPTATVAEQGEDITSKKDRGVLKIVKRVGNGEETPMIGDKVYVHYKGKLSNGKKFDSSHDRNEPFVFSLGKGQVIKAWDIGVATMKKGEICHLLCKPEYAYGSAGSLPKIPSNATLFFEIELLDFKGEDLFEDGGIIRRTKRKGEGYSNPNEGATVEIHLEGRCGGRMFDCRDVAFTVGEGEDHDIPIGIDKALEKMQREEQCILYLGPRYGFGEAGKPKFGIEPNAELIYEVTLKSFEKAKESWEMDTKEKLEQAAIVKEKGTVYFKGGKYMQAVIQYGKIVSWLEMEYGLSEKESKASESFLLAAFLNLAMCYLKLREYTKAVECCDKALGLDSANEKGLYRRGEAQLLMNEFESAKGDFEKVLEVNPQNKAARLQISMCQKKAKEHNERDRRIYANMFKKFAEQDAKEEANKAMGKKTSEGVTNEKGTDSQAMEEEKPEGHV
notes: as for B1

What was measured:
[1] = target: B2; assay: co-immunoprecipitation from human peripheral blood samples, densitometry, n=21
[2] = target: B2; assay: co-immunoprecipitation from human peripheral blood samples, densitometry, n=22
[3] = target: B1; assay: co-immunoprecipitation with anti-FKBP51 antibody from human peripheral blood protein, Western blot for GR

Row | GR-FKBP51 complex level, PTSD patients relative to trauma controls (Trauma = 1) [1] | GR-FKBP51 complex level, PTSD patients relative to healthy controls (CTRL = 1) [2] | binding result [3] | Binder
1 | 1.46 fold of control | 1.41 fold of control |  | B1
2 |  |  | binds | B2
